Reference: patent US20160222130A1 (Astellas, published 2016)
Like-named read-outs stand apart in the source and are kept apart here.

Key:
[1] = biological target: T1, human Tie2 (on human Tie2-expressing cells) (human, UniProt Q02763 23-1124); test: cell-based or functional assay
[2] = biological target: T1, human Tie2 (on human Tie2-expressing …); test: cell-based or functional assay; remark: listed apart in the source
[3] = biological target: T1, human Tie2 (on human Tie2-expressing …); test: cell-based or functional assay; remark: listed apart in the source
[4] = biological target: T1, human Tie2 (on human Tie2-expressing …); test: cell-based or functional assay; remark: listed apart in the source
[5] = biological target: T2, recombinant monkey Tie2-Fc chimeric protein (Sino Biological Inc., 90292-C02H) (monkey); test: ELISA, Tie2-Fc coated, HRP/TMB absorbance at 450 nm
T2 construct: Bought reagent

[6] = biological target: T3, recombinant human Tie2-Fc chimeric protein (R&D, 313-TI-100) (human, UniProt Q02763 23-745); test: as above
T3 construct: Bought reagent; Fc part of the bought chimera not given
T3 sequence (Q02763 23-745, change not shown): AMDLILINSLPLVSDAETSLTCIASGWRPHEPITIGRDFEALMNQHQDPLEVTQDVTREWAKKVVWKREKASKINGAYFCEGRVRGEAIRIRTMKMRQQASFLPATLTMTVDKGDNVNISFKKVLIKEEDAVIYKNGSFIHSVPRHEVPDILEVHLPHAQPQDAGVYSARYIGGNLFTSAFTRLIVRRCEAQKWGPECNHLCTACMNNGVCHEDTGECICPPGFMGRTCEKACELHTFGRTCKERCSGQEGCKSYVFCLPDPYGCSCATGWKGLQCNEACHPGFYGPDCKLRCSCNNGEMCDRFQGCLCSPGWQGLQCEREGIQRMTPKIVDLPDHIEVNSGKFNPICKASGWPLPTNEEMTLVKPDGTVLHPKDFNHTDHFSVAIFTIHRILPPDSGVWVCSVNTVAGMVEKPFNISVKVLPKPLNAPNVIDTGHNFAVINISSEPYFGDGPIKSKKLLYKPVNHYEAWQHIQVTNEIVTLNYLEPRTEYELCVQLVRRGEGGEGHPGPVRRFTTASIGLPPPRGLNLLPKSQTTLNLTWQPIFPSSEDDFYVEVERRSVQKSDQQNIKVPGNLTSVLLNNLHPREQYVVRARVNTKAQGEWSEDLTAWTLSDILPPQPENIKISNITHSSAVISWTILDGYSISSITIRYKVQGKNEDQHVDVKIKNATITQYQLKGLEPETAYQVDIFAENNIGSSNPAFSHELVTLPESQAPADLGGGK

T1 sequence (Q02763 23-1124): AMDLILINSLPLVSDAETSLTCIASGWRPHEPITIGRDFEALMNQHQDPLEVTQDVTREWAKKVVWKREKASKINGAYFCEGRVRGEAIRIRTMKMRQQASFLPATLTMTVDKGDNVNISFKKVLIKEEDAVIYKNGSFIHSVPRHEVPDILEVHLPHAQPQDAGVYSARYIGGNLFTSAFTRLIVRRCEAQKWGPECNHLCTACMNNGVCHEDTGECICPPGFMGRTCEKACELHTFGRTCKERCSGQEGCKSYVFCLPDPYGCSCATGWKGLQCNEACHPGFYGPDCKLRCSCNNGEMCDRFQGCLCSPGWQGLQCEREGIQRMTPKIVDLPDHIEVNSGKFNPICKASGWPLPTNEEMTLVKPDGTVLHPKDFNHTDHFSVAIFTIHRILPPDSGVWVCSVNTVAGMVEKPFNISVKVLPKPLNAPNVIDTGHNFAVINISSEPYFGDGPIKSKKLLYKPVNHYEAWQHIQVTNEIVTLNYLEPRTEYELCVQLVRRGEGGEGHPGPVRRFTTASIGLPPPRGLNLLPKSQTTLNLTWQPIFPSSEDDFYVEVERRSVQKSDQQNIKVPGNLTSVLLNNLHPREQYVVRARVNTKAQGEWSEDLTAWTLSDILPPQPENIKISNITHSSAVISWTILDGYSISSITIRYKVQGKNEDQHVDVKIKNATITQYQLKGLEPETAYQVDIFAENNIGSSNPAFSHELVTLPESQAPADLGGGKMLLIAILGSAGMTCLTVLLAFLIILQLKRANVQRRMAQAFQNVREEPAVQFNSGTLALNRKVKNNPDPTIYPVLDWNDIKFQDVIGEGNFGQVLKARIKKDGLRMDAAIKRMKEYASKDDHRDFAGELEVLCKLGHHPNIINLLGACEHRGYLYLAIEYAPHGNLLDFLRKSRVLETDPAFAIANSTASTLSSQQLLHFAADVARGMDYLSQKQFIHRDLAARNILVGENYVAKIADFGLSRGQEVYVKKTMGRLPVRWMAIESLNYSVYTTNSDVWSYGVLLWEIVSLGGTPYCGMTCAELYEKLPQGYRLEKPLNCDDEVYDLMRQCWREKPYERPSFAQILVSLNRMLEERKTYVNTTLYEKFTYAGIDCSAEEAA

B1: TIE-1-Igγ1-WT (antibody, human IgG1, kappa)
heavy: not shown
light: DIQMTQSPSSLSASVGDRVTITCRSSQSLLHSHRYNYLDWYQQKPGKAPKLLIYLGSNRASGVPSRFSGSGSGTDFTLTISSVQPEDFATYYCMQTLQTPLTFGQGTKVEIKRTVAAPSVFIFPPSDEQLKSGTASVVCLLNNFYPREAKVQWKVDNALQSGNSQESVTEQDSKDSTYSLSSTLTLSKADYEKHKVYACEVTHQGLSSPVTKSFNRGEC
[1]
  EC50 value of anti-apoptotic activity, human Tie2-expressing BaF3 cell: 0.0071 µg/mL

B2: TIE-1-Igγ1-I253A (antibody, human IgG1, kappa, L234A L235A)
heavy: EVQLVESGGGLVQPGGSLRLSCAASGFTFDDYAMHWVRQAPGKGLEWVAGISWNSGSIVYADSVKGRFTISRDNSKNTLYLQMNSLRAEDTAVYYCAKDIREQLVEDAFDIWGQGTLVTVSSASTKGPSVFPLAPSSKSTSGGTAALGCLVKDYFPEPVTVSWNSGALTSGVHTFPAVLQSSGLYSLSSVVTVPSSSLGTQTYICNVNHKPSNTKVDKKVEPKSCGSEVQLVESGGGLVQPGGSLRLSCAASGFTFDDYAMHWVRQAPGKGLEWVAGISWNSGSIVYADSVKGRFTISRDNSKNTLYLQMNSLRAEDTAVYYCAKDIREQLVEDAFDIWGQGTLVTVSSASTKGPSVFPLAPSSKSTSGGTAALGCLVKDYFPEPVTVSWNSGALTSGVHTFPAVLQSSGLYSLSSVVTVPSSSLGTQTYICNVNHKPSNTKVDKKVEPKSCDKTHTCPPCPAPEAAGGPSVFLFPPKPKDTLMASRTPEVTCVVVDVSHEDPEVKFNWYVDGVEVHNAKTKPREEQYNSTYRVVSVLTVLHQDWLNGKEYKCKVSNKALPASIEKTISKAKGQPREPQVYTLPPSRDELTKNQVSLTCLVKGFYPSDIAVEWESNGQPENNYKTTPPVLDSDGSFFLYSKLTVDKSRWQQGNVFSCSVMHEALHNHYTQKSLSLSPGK
light: DIQMTQSPSSLSASVGDRVTITCRSSQSLLHSHRYNYLDWYQQKPGKAPKLLIYLGSNRASGVPSRFSGSGSGTDFTLTISSVQPEDFATYYCMQTLQTPLTFGQGTKVEIKRTVAAPSVFIFPPSDEQLKSGTASVVCLLNNFYPREAKVQWKVDNALQSGNSQESVTEQDSKDSTYSLSSTLTLSKADYEKHKVYACEVTHQGLSSPVTKSFNRGEC
[2]
  EC50 value of anti-apoptotic activity, human Tie2-expressing BaF3 cell: 0.00506 µg/mL

B3: murine monoclonal antibody 15B8 (antibody, V domains shown)
VH: QVQLQQPGVVLVMPGASVKLSCKASGYTFASYWMHWVKQRPGQGLEWIGEIDPSDSYRNYNQKFKGKATLTVDKSSSTVNMQLSSLTSEDSAVYYCAKTSGIGRAMDYWGQGTSVTVSS
VL: DIQMIQSPASLSASVGETVTITCRASENIYSFVTWYQQKQGKSPQLLVFNAKNLVEGVPSSFSGSGSGTQFSLKIDSLQPEDFGTYYCQHHYSIPYTFGGGTKLEMR
[3]
  EC50 value of anti-apoptotic activity, human Tie2-expressing BaF3 cell: 0.0266 µg/mL
[4]
  anti-apoptotic activity, human Tie2-expressing BaF3 cell (maximum, relative to Ang-1): ~60%
[5]
  EC50: 0.224 µg/mL
[6]
  EC50: 0.219 µg/mL

B4: fully human 2-16A2 (antibody, human IgG1, kappa, V domains shown)
VH: EVQLVESGGGLVQPGGSLRLSCAASGFTFDDYAMHWVRQAPGKGLEWVAGISWNSGSIVYADSVKGRFTISRDNSKNTLYLQMNSLRAEDTAVYYCAKDIREQLVEDAFDIWGQGTLVTVSS
VL: DIQMTQSPSSLSASVGDRVTITCRSSQSLLHSHRYNYLDWYQQKPGKAPKLLIYLGSNRASGVPSRFSGSGSGTDFTLTISSVQPEDFATYYCMQTLQTPLTFGQGTKVEIKR
[1]
  EC50 value of anti-apoptotic activity, human Tie2-expressing BaF3 cell: 0.0376 µg/mL
